Assay results reported in patent US20240166688.

Biological target: T1, peptide of SEQ ID NO: 1
T1 chain: GKCSTRGRKCCRRKK

B1: HDAC5 in RAW 264.7 cells (protein)
chain: MNSPNESDGMSGREPSLGILPRTPLHSIPVAVEVKPVLPGAMPSSMGGGGGGSPSPVELRGALAGPMDPALREQQLQQELLVLKQQQQLQKQLLFAEFQKQHDHLTRQHEVQLQKHLKQQQEMLAAKRQQELEQQRQREQQRQEELEKQRLEQQLLILRNKEKSKESAIASTEVKLRLQEFLLSKSKEPTPGGLNHSLPQHPKCWGAHHASLDQSSPPQSGPPGTPPSYKLPLLGPYDSRDDFPLRKTASEPNLKVRSRLKQKVAERRSSPLLRRKDGTVISTFKKRAVEITGTGPGVSSVCNSAPGSGPSSPNSSHSTIAENGFTGSVPNIPTEMIPQHRALPLDSSPNQFSLYTSPSLPNISLGLQATVTVTNSHLTASPKLSTQQEAERQALQSLRQGGTLTGKFMSTSSIPGCLLGVALEGDTSPHGHASLLQHVCSWTGRQQSTLIAVPLHGQSPLVTGERVATSMRTVGKLPRHRPLSRTQSSPLPQSPQALQQLVMQQQHQQFLEKQKQQQMQLGKILTKTGELSRQPTTHPEETEEELTEQQEALLGEGALTIPREGSTESESTQEDLEEEEEEEEEEEEDCIQVKDEDGESGPDEGPDLEESSAGYKKLFADAQQLQPLQVYQAPLSLATVPHQALGRTQSSPAAPGSMKSPTDQPTVVKHLFTTGVVYDTFMLKHQCMCGNTHVHPEHAGRIQSIWSRLQETGLLGKCERIRGRKATLDEIQTVHSEYHTLLYGTSPLNRQKLDSKKLLGPISQKMYAMLPCGGIGVDSDTVWNEMHSSSAVRMAVGCLVELAFKVAAGELKNGFAIIRPPGHHAEESTAMGFCFFNSVAITAKLLQQKLSVGKVLIVDWDIHHGNGTQQAFYNDPSVLYISLHRYDNGNFFPGSGAPEEVGGGPGVGYNVNVAWTGGVDPPIGDVEYLTAFRTVVMPIAQEFSPDVVLVSAGFDAVEGHLSPLGGYSVTARCFGHLTRQLMTLAGGRVVLALEGGHDLTAICDASEACVSALLSVELQPLDEAVLQQKPSVNAVATLEKVIEIQSKHWSCVQRFAAGLGCSLREAQTGEKEEAETVSAMALLSVGAEQAQAVATQEHSPRPAEEPMEQEPAL
**Q.** With B1 as the protein, how does the “Phosphorylation ratio (Phospho explorer antibody microarray, peptide + LPS against LPS alone)” value read?
**A.** phosphorylation of HDAC5 was inhibited the most (0.278)
